In publication doi:10.1101/2025.06.20.660705:

Target: RNF13 DN-HA (dominant-negative RNF13, HA-tagged) (human) (UniProt O43567)
Test: co-IP

Sequence of UniProt O43567 (O43567 35-381): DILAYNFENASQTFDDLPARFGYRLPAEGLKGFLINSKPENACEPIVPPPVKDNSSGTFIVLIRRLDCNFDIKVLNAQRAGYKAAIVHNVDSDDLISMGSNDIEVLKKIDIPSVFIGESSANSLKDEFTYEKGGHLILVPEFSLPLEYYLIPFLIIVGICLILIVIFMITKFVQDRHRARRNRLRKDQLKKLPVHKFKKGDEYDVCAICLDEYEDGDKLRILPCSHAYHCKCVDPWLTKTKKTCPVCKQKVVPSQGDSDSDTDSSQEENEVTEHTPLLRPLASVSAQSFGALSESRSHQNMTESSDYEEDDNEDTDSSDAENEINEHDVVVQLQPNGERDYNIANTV

B1: IDS-V5 (wild-type, full-length human iduronate 2-sulfatase, C-terminal V5 tag) (enzyme)
chain: SETQANSTTDALNVLLIIVDDLRPSLGCYGDKLVRSPNIDQLASHSLLFQNAFAQQAVCAPSRVSFLTGRRPDTTRLYDFNSYWRVHAGNFSTIPQYFKENGYVTMSVGKVFHPGISSNHTDDSPYSWSFPPYHPSSEKYENTKTCRGPDGELHANLLCPVDVLDVPEGTLPDKQSTEQAIQLLEKMKTSASPFFLAVGYHKPHIPFRYPKEFQKLYPLENITLAPDPEVPDGLPPVAYNPWMDIRQREDVQALNISVPYGPIPVDFQRKIRQSYFASVSYLDTQVGRLLSALDDLQLANSTIIAFTSDHGWALGEHGEWAKYSNFDVATHVPLIFYVPGRTASLPEAGEKLFPYLDPFDSASQLMEPGRQSMDLVELVSLFPTLAGLAGLQVPPRCPVPSFHVELCREGKNLLKHFRFRDLEEDPYLPGNPRELIAYSQYPRPSDIPQWNSDKPSLKDIKIMGYSIRTIDYRYTVWVGFNPDEFLANFSDIHAGELYFVDSDPLQDHNMYNDSQGGDLFQLLMP
Q: How did the amount of IDS co-immunoprecipitated relative to RNF13 WT turn out when B1 was run?
A: 50%
